Data on two molecules can be found in PMC4850456, “Phenylbutazone induces expression of MBNL1 and suppresses formation of MBNL1-CUG RNA foci in a mouse model of myotonic dystrophy”.

One data set has as its target T1, GST-MBNL1 (1-260) (UniProt Q9NR56 1-260).
T1 sequence: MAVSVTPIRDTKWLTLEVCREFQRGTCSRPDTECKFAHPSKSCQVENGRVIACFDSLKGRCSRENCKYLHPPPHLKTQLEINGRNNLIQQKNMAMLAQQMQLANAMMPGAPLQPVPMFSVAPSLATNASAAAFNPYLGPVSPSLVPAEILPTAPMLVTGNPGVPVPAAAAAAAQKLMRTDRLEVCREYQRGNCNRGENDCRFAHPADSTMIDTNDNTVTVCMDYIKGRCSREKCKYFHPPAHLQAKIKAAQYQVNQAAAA
As to the kind of experiment: EMSA; no PBZ; 10 mM Tris-HCl pH 7.5, 50 mM KCl, 1 mM DTT, room temperature 30 min, 20 ul; 6 ug protein, RNA 2.5 pmol/ul; then PBZ 15 min at room temperature. The note with it: protein: recombinant; tags: GST (N-terminal fusion); label: 5'-biotin.

The next data set addresses GST-PTBP1 (UniProt P26599 1-557). The data set is described as above. The following applies: protein: recombinant; tags: GST (pGEX-6P-1); label: 5'-biotin.

Chain of GST-PTBP1 (P26599 whole entry): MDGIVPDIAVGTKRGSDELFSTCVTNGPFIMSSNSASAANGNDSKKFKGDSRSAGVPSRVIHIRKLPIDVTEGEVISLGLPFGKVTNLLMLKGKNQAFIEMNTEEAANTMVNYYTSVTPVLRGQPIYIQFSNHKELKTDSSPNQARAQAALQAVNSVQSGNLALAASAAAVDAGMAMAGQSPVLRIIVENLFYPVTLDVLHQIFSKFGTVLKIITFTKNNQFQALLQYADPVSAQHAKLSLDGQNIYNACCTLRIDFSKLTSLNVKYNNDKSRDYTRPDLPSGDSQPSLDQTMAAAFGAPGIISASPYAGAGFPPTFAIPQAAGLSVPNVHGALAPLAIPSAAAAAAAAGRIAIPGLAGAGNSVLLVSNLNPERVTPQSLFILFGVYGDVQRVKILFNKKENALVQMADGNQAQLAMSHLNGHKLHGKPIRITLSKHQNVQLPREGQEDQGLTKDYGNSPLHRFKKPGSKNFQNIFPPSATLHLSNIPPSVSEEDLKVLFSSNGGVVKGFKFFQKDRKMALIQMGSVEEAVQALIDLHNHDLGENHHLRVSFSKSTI

On to GCCUGCUGCUGCUGCUGCUGCUGCUGCUGCUGGC (structured_RNA) [CUG repeat RNA probe], for which, in the data set with GST-MBNL1 (1-260), the binding result is given as “binds”.

Consider UUUCUCCUUUUCUGUGGGUGGACAGGGUGACAUGGUA (ssRNA) [CHRNA1 polypyrimidine tract RNA probe], for which the binding result with GST-PTBP1 is listed as “binds”.
